In paper PMC10696660:

Target: AqpZ (UniProt P60844)
Experiment: native MS

**Q.** “AqpZ (from UniProt P60844 1-231) (natural protein)” was tested. Which stoichiometry N did it give?
**A.** 4
